Reference: publication PMC9357155 (Cancer Discovery, 2022)
Changes are numbered by the printed parent chain. Names may count otherwise.

T1: Full-length His-tagged MALT1 (human, UniProt Q9UDY8 1-824)
T1 sequence: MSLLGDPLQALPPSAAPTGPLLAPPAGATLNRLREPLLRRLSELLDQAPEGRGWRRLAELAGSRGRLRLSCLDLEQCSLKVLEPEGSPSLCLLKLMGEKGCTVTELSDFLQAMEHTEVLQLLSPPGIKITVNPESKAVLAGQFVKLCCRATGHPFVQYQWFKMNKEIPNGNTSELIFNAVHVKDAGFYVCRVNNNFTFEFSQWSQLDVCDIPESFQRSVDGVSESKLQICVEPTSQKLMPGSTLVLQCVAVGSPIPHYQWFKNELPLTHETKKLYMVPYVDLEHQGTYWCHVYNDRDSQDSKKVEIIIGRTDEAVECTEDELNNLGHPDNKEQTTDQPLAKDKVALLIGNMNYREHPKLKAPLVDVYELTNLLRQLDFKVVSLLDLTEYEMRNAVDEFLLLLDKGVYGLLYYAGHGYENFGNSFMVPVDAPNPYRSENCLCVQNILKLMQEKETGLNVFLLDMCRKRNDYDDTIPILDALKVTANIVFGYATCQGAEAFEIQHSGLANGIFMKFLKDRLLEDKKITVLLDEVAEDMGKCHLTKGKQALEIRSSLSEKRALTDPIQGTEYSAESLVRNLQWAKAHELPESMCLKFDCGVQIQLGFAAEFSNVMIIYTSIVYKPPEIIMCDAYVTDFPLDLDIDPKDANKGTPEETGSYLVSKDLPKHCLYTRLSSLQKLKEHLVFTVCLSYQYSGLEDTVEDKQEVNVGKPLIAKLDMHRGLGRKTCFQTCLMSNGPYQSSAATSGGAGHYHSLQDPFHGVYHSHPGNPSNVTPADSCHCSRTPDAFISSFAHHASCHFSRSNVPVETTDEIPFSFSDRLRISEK

B1: BCL10 E140X truncation mutant, after removal of the MBP tag by 3C protease (domain or fragment)
chain: MEPTAPSLTEEDLTEVKKDALENLRVYLCEKIIAERHFDHLRAKKILSREDTEEISCRTSSRKRAGKLLDYLQENPKGLDTLVESIRREKTQNFLIQKITDEVLKLRNIKLEHLKGLKCSSCEPFPDGATNNLSRSNSD
modifications: Alexa488 (C5-maleimide) on cysteine residues in the confocal and quenching assays; not labelled for EM
B2: MBP-fused BCL10 E140X (domain or fragment)
chain: B1 chain
B3: BCL10 wild type, full length, after removal of the MBP tag by 3C protease (natural protein)
chain: MEPTAPSLTEEDLTEVKKDALENLRVYLCEKIIAERHFDHLRAKKILSREDTEEISCRTSSRKRAGKLLDYLQENPKGLDTLVESIRREKTQNFLIQKITDEVLKLRNIKLEHLKGLKCSSCEPFPDGATNNLSRSNSDESNFSEKLRASTVMYHPEGESSTTPFFSTNSSLNLPVLEVGRTENTIFSSTTLPRPGDPGAPPLPPDLQLEEEGTCANSSEMFLPLRSRTVSRQ
modifications: Alexa488 (C5-maleimide) on cysteine residues in the confocal and quenching assays; not labelled for EM
B4: BCL10 R58Q, full length, after removal of the MBP tag by 3C protease (natural protein)
chain: B3 chain with R58Q
modifications: Alexa488 (C5-maleimide) on cysteine residues in the confocal and quenching assays; not labelled for EM

Assays:
[1] = target: T1, Full-length His-tagged MALT1; test: negative-stain EM
SEC = target: the molecule itself; test: SEC
[2] = target: T1, Full-length His-tagged MALT1; test: fluorescence quenching polymerisation assay

| Binder | binding result [1] | also measured |
| --- | --- | --- |
| B1 | binds | – |
| B2 | – | binding result (SEC): binds |
| B3 | binds | – |
| B4 | – | binding result [2]: binds |
